Source: article PMC6821725, “Unique structure and function of viral rhodopsins” (Nature Communications, 2019)

How the values were obtained:
[1] = molecular target: T1, Organic Lake Phycodnavirus rhodopsin II (OLPVRII) (Organic Lake phycodnavirus, UniProt Z9UQ29F7D0); test: X-ray crystal structure […] A, in meso; UV-Vis absorption; type: binding; details: covalent; Schiff base to Lys195; crystals from 0.2 M sodium malonate pH 4.6; spectra in DDM
T1 construct: expressed in E. coli SE1 or C41(DE3); monomeric and pentameric fractions in DDM

Asp85 = Asp85 (UniProt position 98, WARYADWLFTT); details: cited from earlier work
[2] = molecular target: OLPVRII triple mutant E26A/R36A/W203A (Organic Lake Phycodnavirus); test: SEC
[3] = molecular target: Organic Lake Phycodnavirus rhodopsin II (Organic Lake Phycodnavirus); test: cross-linking; glutaraldehyde (10%), monomeric fraction reconstituted into POPC/POPG (4:1 by weight; POPC:POPS in another paragraph) liposomes, 1 mg/ml protein, 8 h, read by SDS-PAGE
[4] = molecular target: Organic Lake Phycodnavirus rhodopsin II (Organic Lake Phycodnavirus); test: SEC
[5] = molecular target: Organic Lake Phycodnavirus rhodopsin II (Organic Lake Phycodnavirus); test: cross-linking; glutaraldehyde (10%), DDM-solubilized multimeric SEC fraction, 2 mg/ml protein, 8 h, 4 °C, read by SDS-PAGE
[6] = molecular target: Organic Lake Phycodnavirus rhodopsin II (Organic Lake Phycodnavirus); test: crystal structure; in meso crystallization in monoolein from the monomeric fraction, 0.2 M sodium malonate pH 4.6, 15% PEG 550 MME, 22 °C; space group P2_(1), five molecules in the asymmetric unit

CC1=C(/C=C/C(C)=C/C=C/C(C)=C/C=O)C(C)(C)CCC1 [all-trans-retinal]
X-ray crystal structure 1.9 A, in meso; UV-Vis absorption [1]: The retinal cofactor is covalently bound to Lys195 through the Schiff base (RSB)

Bacteriorhodopsin (bR) (Halobacterium salinarum)
pKa (Asp85): 2.7

OLPVRII triple mutant E26A/R36A/W203A (natural protein)
pentamer:monomer ratio in the elution profile (pentamer:monomer) [2]: 1
stoichiometry N [2]: 5

Organic Lake Phycodnavirus rhodopsin II (natural protein)
stoichiometry N [3]: 5
pentamer:monomer ratio in the elution profile (pentamer:monomer) [4]: 4
stoichiometry N [4]: 5
stoichiometry N [5]: 5
stoichiometry N [6]: 5
